How the values were obtained:
[1] = In vitro release of AZD4320 from conjugate in rat plasma with 5% HEPES, 37 °C (Fig S8); type: in vitro ADME; conditions: Rat Plasma 37 °C
Experimental: AZD4320 loading was quantified by 1H NMR spectroscopy. […]
conjugated AZD4320 peak areas. […]
AZD4320 conjugated dendrimer in plasma
Supplementary Figure 8. Comparison and release rate in plasma and buffer. Cumulative in vitro release of AZD4320 measured over time from AZD4320-dendrimer conjugate SPL8977) in phosphate buffered saline (purple circles, n=3) and rat plasma (green squares, n=2) and fit to first order model at 37 °C (n=2) […]

[2] = Plasma pharmacokinetics after IV bolus in C.B-17 SCID mouse; type: in vivo; conditions: mouse, at 10 mg/kg or equivalent
Experimental: Pharmacokinetic studies were carried out in the female C.B-17 SCID mouse. Either freshly prepared solutions of AZD4320 in 30% hydroxypropyl-β-cyclodextrin or drug-dendrimer conjugates in phosphate buffered saline were injected as a bolus into the tail vein at dosing volume of 5 ml/kg. Blood samples were collected at different time points post dose and analysed as below.
Blood samples were collected from the jugular vein by venepuncture into K2EDTA (as anticoagulant) tubes. Immediately following collection into the K2EDTA tube the samples were mixed gently and kept on crushed ice until centrifugation. Within 30 mins of blood collection, each sample was centrifuged (1500 g for 10 min at 4 °C) to generate plasma which was kept on wet ice at all times in polypropylene tubes. Duplicate 50 μL aliquots were transferred immediately after centrifugation into uniquely labelled polypropylene tubes (‘released’ AZD4320) containing equivalent amount (50 μL) of 0.2 M citric acid solution, inverted 10 times and then stored in a freezer set to maintain a temperature of −80 °C, until analysis.
The concentrations of ‘total’ AZD4320 were determined in plasma by overnight incubation with hydrazine followed by protein precipitation with acetonitrile and subsequent liquid/liquid extraction. Liquid chromatography with mass spectrometric detection (LC-MS/MS, details in Supplementary Table 5) was used to quantitate both ‘released’ and ‘total’ AZD4320.
Sample analyses were performed in batches containing study samples, calibration standards at 10 concentration levels, QC samples at three concentration levels in duplicate and blank samples. The analytical run acceptance criteria for calibration standards and QC samples was that at least 75% of back-calculated concentrations for calibration standards and at least 2/3 of the QC samples (at least 50% at each concentration level) should be within ±20% (±25% at LLOQ) from nominal value.

[3] = tested on: telemetered dogs; conditions: dog, in vivo, 60 mg/kg

Q: Which results are given for AZD4320-MIDA-PEG2100 [AZD0466]?
A: Cummulative Release % ([1]; 1.06 h, Replicate 1): 2.56%; Cummulative Release % ([1]; 1.24 h, Replicate 2): 3.28%; Cummulative Release % ([1]; 5.87 h, Replicate 1): 9.61%; Cummulative Release % ([1]; 6.04 h, Replicate 2): 11.99%; Cummulative Release % ([1]; 10.67 h, Replicate 1): 18.75%; Cummulative Release % ([1]; 10.85 h, Replicate 2): 23.05%; Cummulative Release % ([1]; 15.47 h, Replicate 1): 27.34%; Cummulative Release % ([1]; 15.65 h, Replicate 2): 32.24%; Cummulative Release % ([1]; 20.27 h, Replicate 1): 39.17%; Cummulative Release % ([1]; 20.45 h, Replicate 2): 41.44%; Total Concentration in Plasma as AZD4320, Mean (Fig S9) ([2]; 1 hr): 117.3 µg/mL; Total Concentration in Plasma as AZD4320, Mean (Fig S9) ([2]; 3 hr): 49.1 µg/mL; Total Concentration in Plasma as AZD4320, Mean (Fig S9) ([2]; 9 hr): 36.3 µg/mL; Total Concentration in Plasma as AZD4320, Mean (Fig S9) ([2]; 20 hr): 8.0 µg/mL; adverse clinical signs [3]: not associated with any adverse clinical signs

Source: article PMC7835349 (Communications Biology, 2021)
